Series [1] concerns the target T1, T. brucei pyridoxal kinase (TbPdxK) (Trypanosoma brucei, UniProt O15927).
T1 sequence (O15927 1-300): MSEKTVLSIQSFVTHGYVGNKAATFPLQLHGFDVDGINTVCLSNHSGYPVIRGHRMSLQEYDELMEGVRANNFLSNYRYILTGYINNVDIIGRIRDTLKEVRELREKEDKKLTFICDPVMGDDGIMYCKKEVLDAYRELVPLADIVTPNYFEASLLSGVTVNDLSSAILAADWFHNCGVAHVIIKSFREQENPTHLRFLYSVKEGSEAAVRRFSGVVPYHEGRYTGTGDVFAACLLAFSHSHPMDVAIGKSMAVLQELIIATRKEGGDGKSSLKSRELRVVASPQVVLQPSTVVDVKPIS
The experiment in a line: coupled PK/LDH assay. Type of series: biochemical. To be noted: read-out: Km^app.

Substrate in series [2]: Cc1ncc(CO)c(C=O)c1O
Put plainly: purified protein. Type of series: biochemical, Trypanosoma brucei. To be noted: ATP, Mg2+.

Substrate in series [3]: Cc1ncc(CO)c(CN)c1O
The experiment in a line: purified protein. The class given is biochemical, Trypanosoma brucei. To be noted: ATP, Mg2+.

Substrate in series [4]: Cc1ncc(CO)c(CO)c1O
Put plainly: purified protein. The class given is biochemical, Trypanosoma brucei. The following applies: ATP, Mg2+.

The term Km denotes the concentration of substrate that gives half-maximal velocity. As for `COCc1c(CO)cnc(C)c1O` [GT, ginkgotoxin], in series [1], the Michaelis-Menten constant (Km) came to 46.6 ± 10.2 µM.

B1: T. brucei pyridoxal kinase (TbPdxK) (Trypanosoma brucei) (protein)
chain: MSEKTVLSIQSFVTHGYVGNKAATFPLQLHGFDVDGINTVCLSNHSGYPVIRGHRMSLQEYDELMEGVRANNFLSNYRYILTGYINNVDIIGRIRDTLKEVRELREKEDKKLTFICDPVMGDDGIMYCKKEVLDAYRELVPLADIVTPNYFEASLLSGVTVNDLSSAILAADWFHNCGVAHVIIKSFREQENPTHLRFLYSVKEGSEAAVRRFSGVVPYHEGRYTGTGDVFAACLLAFSHSHPMDVAIGKSMAVLQELIIATRKEGGDGKSSLKSRELRVVASPQVVLQPSTVVDVKPIS
For B1, the Km was 1.65 ± 0.14 µM in “purified protein [2]”, 59.4 ± 14.8 µM in the series “purified protein [3]” and 48.0 ± 12.7 µM in “purified protein [4]”.

Source of the values: paper PMC3470933 (Molecular Microbiology, 2012).
